# Measured values from patent US20250163146A1 (published 2025).
# B1: hDLL4(N-EGF5) (ligand)
# chain: SGVFQLQLQEFINERGVLASGRPCEPGCRTFFRVCLKHFQAVVSPGPCTFGTVSTPVLGTNSFAVRDDSSGGGRNPLQLPFNFTWPGTFSLIIEAWHAPGDDLRPEALPPDALISKIAIQGSLAVGQNWLLDEQTSTLTRLRYSYRVICSDNYYGDNCSRLCKKRNDHFGHYVCQPDGNLSCLPGWTGEYCQQPICLSGCHEQNGYCSKPAECLCRPGWQGRLCNECIPHNGCRHGTCSTPWQCTCDEGWGGLFCDQDLNYCTHHSPCKNGATCSNSGQRSYTCTCRPGYTGVDCELELSECDSNPCRNGGSCKDQEDGYHCLCPPGYYGLHCEHSTLSCADSPCFNGGSCRERNQGANYACECPPNFTGSNCEK
# modifications: biotinylated in the flow cytometry titration (site not stated); not stated for the plate-coated protein
# B2: mDll4(N-EGF3) (ligand)
# chain: GSGIFQLRLQEFVNQRGMLANGQSCEPGCRTFFRICLKHFQATFSEGPCTFGNVSTPVLGTNSFVVRDKNSGSGRNPLQLPFNFTWPGTFSLNIQAWHTPGDDLRPETSPGNSLISQIIIQGSLAVGKIWRTDEQNDTLTRLSYSYRVICSDNYYGESCSRLCKKRDDHFGHYECQPDGSLSCLPGWTGKYCDQPICLSGCHEQNGYCSKPDECICRPGWQGRLCNECIPHNGCRHGTCSIPWQCACDEGWGGLFCDQDLNYCTHHSPCKNGSTCSNSGPKGYTCTCLPGYTGEHCEL
# modifications: biotinylated (site not stated)
# Biological target: Nb.d4C4-1
# Test: SPR
row,Binder,Kd [nM]
1,B1,1.43
2,B2,1.63
